The results in this text go back to patent US20060166284A1 (Bayer, published 2006).

B1: single chain anti-TF antibody scFv(TF)3e10 (scFv)
scFv: EMAQVNLRESGGTLVQPGGSLRLSCAASGFSFTDAWMSWVRQAPGKELEWVSSISGSGGSTYYAGSVKGRFTISRDNSKNTLYLQMNSLRAEDTAVYYCARVLSLTDYYWYGMDVWGQGTLVTVSAGGGGSGAPNFMLTQPHSVSASPGKTVTISCTRSSGSVASYYVQWYQQRPGSSPTTVIYEDNHRPSGVPDRFSGSIDTSSNSASLTISGLKTEDEADYYCQSYDSNNLVVFGGGTKLTVLGAAAGAPVPYPDPLEPRAA
notes: Monomer and dimer forms were separated by gel filtration
B2: recombinant human soluble tissue factor (receptor, UniProt P13726 33-251, looked up)
chain: SGTTNTVAAYNLTWKSTNFKTILEWEPKPVNQVYTVQISTKSGDWKSKCFYTTDTECDLTDEIVKDVKQTYLARVFSYPAGNVESTGSAGEPLYENSPEFTPYLETNLGQPTIQSFEQVGTKVNVTVEDERTLVRRNNTFLSLRDVFGKDLIYTLYYWKSSSSGKKTAKTNTNEFLIDVDKGENYCFSVQAVIPSRTVNRKSTDSPVECMGQEKGEFRE
notes: extracellular domain; also called sTF; soluble TF

Several values for one entry are separate records, joined by “and”; a condition that tells them apart may be missing. Equal values may be shown once.

The target in data set [1] is FVIIa/TF complex on a phospholipid surface (recombinant human TF vesicles with human FVIIa) (UniProt P13726).
Data set [2] concerns the target T1, FVIIa/TF complex preformed from sTF and FVIIai (human, UniProt P13726 33-251; P08709 61-466, limits assumed, active site inactivated by a chloromethylketone peptide, PPACK (FVIIai)).
T1 construct: extracellular domain;mature; Complex used in the microcalorimetry assay; It was made with a 2.3 fold molar excess of FVIIai over sTF; also called TF/FVIIa complex; sTF/FVIIa complex
The data set is described as follows: microcalorimetry (isothermal titration calorimetry), model OneSites, CHO-expressed scFv(TF)3e10 titrated into the preformed sTF/FVIIai complex. As for the experimental part:
(§1) This assay is performed using a MicroCal VP-ITC instrument. […] Data analysis is performed using MicroCal Origin software. The data is fit to a single binding site.
(ITC needs no label: the signal is the heat of the interaction.)

The target of data set [3] is B2. The data set is described as follows: BIAcore; BIAcore; free sTF, no FVIIa.
Data set [4] has as its target FVIIa/TF complex on a phospholipid surface (recombinant human TF vesicles with human FVIIa) (human, UniProt P13726 33-295; P08709 61-466). The data set is described as follows: cell-based or functional assay.
In data set [5] the target is T1, FVIIa/TF complex preformed from sTF and …. The data set is described as follows: microcalorimetry (isothermal titration calorimetry), model OneSites, CHO-expressed scFv(TF)3e10 titrated into the preformed sTF/FVIIai complex; no unit printed in the fit box. How it is done:
as §1

For data set [6] the target is unchanged. The data set is described as follows: microcalorimetry (ITC); scFv expressed in mammalian (CHO) cells; complex of sTF with FVIIai; microcalorimetry; TF/FVIIa complex; mammalian cell expressed scFv. As for the experimental part:
as §1

Data set [7] concerns the target B2. The data set is described as follows: microcalorimetry (ITC); scFv expressed in mammalian (CHO) cells; free sTF; microcalorimetry; free sTF; mammalian cell expressed scFv. As for the experimental part: as §1
Data set [8] concerns the target T2, sTF/FVIIa complex (soluble tissue factor with active human FVIIa) (human, UniProt P13726 33-251; P08709 61-466).
T2 construct: extracellular domain;mature; The complex forms in the sTF/FVIIa peptide hydrolysis assay (3 nM sTF, 2 nM FVIIa); also called FVIIa/TF complex; VIIa/TF complex
The data set is described as follows: sTF/FVIIa peptide hydrolysis assay (3 nM sTF, 2 nM FVIIa); scFv titrated, 4-parameter fit of the rise in rate; bacterially expressed scFv; peptide hydrolysis assay with 3 nM sTF and 2 nM FVIIa present.

Data set [9] deals with T3, human factor VIIa (human, UniProt P08709 61-466).
T3 construct: mature; also called FVIIa
T3 sequence (looked up): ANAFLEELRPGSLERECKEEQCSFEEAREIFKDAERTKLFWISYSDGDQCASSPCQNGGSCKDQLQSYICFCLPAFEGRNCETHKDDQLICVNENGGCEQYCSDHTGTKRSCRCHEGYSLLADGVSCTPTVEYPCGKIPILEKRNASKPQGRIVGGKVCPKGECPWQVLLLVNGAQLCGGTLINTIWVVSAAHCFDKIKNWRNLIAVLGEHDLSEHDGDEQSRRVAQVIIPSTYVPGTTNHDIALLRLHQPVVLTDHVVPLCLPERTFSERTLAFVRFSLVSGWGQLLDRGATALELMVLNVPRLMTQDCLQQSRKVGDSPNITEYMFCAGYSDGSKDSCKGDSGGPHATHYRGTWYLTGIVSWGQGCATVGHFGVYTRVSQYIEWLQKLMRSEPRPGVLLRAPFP
The data set is described as follows: sTF/FVIIa peptide hydrolysis assay (S2266), 2 nM FVIIa, no sTF.

For data set [10], the target named is T1, FVIIa/TF complex preformed from sTF and …. The data set is described as follows: microcalorimetry (ITC); scFv expressed in mammalian (CHO) cells. As for the experimental part:
as §1

Data set [11] concerns the target B2. The data set is described as follows: microcalorimetry (isothermal titration calorimetry), model OneSites, CHO-expressed scFv(TF)3e10 titrated into sTF; no unit printed in the fit box. As for the experimental part:
as §1

For data set [12], the target named is T3, human factor VIIa. The data set is described as follows: sTF/FVIIa peptide hydrolysis assay (S2266), 2 nM FVIIa, sTF titrated, apparent KD from a 4-parameter fit; no antibody.

In the case of human factor X, in data set [1], the “Km of FX for the VIIa/TF complex (FX activation assay)” value was “between 0.061 and 0.099 µM”.

As for B1, in [2], the N came to 1.14. For the same molecule, the Kd in [3] came to 470 nM; in data set [6], 33 nM; in [7], 600 nM; in data set [8], 65 nM. For the same molecule, the “IC50 for inhibition in the FX activation assay” value in data set [4] stood at 0.44 nM. For the same molecule, the figures for the ΔH in [5] and in [11] were -28600 and -21800, respectively. The molecule further registered a ΔS in data set [5] of -60. Besides, the binding result in data set [9] was “no binding (tested: 800 nM)”. Also, the “fold higher affinity for the TF/FVIIa complex as compared to free sTF” value in [10] was about 20 fold.

Consider B2, for which the Kd in [12] was 13 nM.
